# Measured values as given in patent US10427126B2, “System and method for longitudinal analysis of peptide synthesis” (Roche Sequencing Solutions, Inc., priority 2015, dated 2019).
# Columns and labels:
# streptavidin [1] = target: T1, streptavidin (Streptomyces avidinii, UniProt P22629); assay: Cy5-labeled streptavidin binding to control peptide features on a peptide array (fluorescence signal output, FIG. 12)
# Excerpt: Whereas the hypothetical data presented in FIGS. 8-11 are for two example peptide arrays, actual signal output data following interrogation of a population of control peptide features can be presented in alternative or additional formats. With reference to FIG. 12, data was collected for a peptide array synthesis operation including twelve total synthesis periods. Control peptide features having the streptavidin binder sequence WTHPQFE (SEQ ID NO:1) were synthesized over three consecutive and uninterrupted synthesis periods (e.g., see FIG. 3) with control peptide features synthesized beginning with each of the first ten synthesis periods. […] The signal output is measured for each of the control peptide features using one or more interrogation and detection techniques as described herein. […]
# Control peptide features are analyzed following the completion of a synthesis operation by array deprotection, streptavidin binding, and array scanning. […] Streptavidin fluorescence signal is detected by scanning the array at 2 μm resolution and 15% gain with a 635 nm excitation wavelength using an MS200 microarray scanner.
# Box and whisker plots for analysis of control peptide feature data are prepared in a two-part process. First, data is aggregated for a plurality of synthesis operations that were individually determined to pass a quality control assessment. […]
# streptavidin [2] = target: T1, streptavidin; conditions: peptide including the binder sequence; cited from earlier work
# T1 sequence (P22629 25-183, species assumed): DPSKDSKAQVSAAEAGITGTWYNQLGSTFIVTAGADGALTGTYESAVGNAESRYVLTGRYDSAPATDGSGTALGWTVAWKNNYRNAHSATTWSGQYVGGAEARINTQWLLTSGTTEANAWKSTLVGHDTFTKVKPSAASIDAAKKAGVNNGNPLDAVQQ
Substance,"signal output as percentage of the aggregate data (2^14.3 units) (streptavidin [1]; fourth synthesis operation, synthesis period four)",signal output as percentage of the aggregate data (2^14.3 units) (streptavidin [1]; third synthesis operation),binding by streptavidin (streptavidin [2])
WTHPQFE,about 5%,about 54%,
FDEWL,,,can be bound by streptavidin
